Experimental data reported in patent US20220133889A1 (published 2022).

Legend:
[1] = biological target: T1, cynomolgus TIM-3 expressed on transfected cells (cynomolgus, UniProt A0A2K5U3G7 22-294); experiment: cell binding (FACS); cyno TIM-3 cells
T1 chain: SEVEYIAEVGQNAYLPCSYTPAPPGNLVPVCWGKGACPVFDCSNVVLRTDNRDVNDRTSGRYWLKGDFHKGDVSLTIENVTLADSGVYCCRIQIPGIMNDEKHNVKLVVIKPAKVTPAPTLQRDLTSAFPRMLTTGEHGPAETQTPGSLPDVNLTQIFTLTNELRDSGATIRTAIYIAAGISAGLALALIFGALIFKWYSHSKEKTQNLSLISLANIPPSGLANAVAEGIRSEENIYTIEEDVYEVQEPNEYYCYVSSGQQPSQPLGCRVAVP

[2] = biological target: human TIM-3 expressed on cells (UniProt Q8TDQ0 22-301); experiment: cell binding (FACS); TIM-3-transfected 300.19 cells
[3] = biological target: TIM-3 (assay antigen; species and construct not stated) (UniProt Q8TDQ0 22-202); experiment: SPR (BIAcore)

- Kd [1]: 0.68 nM
- Kd [2]: 0.16 nM
- Kd [3]: 0.042 nM
B1: ABTIM3 (antibody, V domains shown)
VH: QVQLQQPGAELVKPGASVKMSCKASGYTFTSYNMHWIKQTPGQGLEWIGDIYPGNGDTSYNQKFKGKATLTADKSSSTVYMQLSSLTSEDSAVYYCARVGGAFPMDYWGQGTSVTVSS
VL: DIVLTQSPASLAVSLGQRATISCRASESVEYYGTSLMQWYQQKPGQPPKLLIYAASNVESGVPARFSGSGSGTDFSLNIHPVEEDDIAIYFCQQSRKDPSTFGGGTKLEIK
